From paper PMC6298698

Key:
[1] = target: mouse Slo1 (mSlo1) BK channel α subunit, mbr5 splice variant (mouse)
[2] = target: mouse Slo1 (mSlo1) BK channel α subunit, mbr5 splice variant (mouse); remark: listed apart in the source

unbinding probability (q), from the non-inactivating offset of currents, inside-out patches of HEK293 cells, 10 μM Ca2+ [1] | experimental rectification ratio Rβ2* of mSlo1+β2(C1S), not corrected for unbinding [2] | experimental rectification ratio Rβ2* of mSlo1+β2(C2S), not corrected for unbinding [2] | Binder
0.08 | – | – | human BK channel β2 subunit C7S (C148S) (natural protein) MFIWTSGRTSSSYRHDEKRNIYQKIRDHDLLDKRKTVTALKAGEDRAILLGLAMMVCSIMMYFLLGITLLRSYMQSVWTEESQCTLLNASITETFNCSFSCGPDCWKLSQYPCLQVYVNLTSSGEKLLLYHTEETIKINQKCSYIPKSGKNFEESMSLVNVVMENFRKYQHFSCYSDPEGNQKSVILTKLYSSNVLFHSLFWPTCMMAGGVAIVAMVKLTQYLSLLCERIQRINR
0.38 | – | – | human BK channel β2 subunit C8S (C174S) (natural protein) MFIWTSGRTSSSYRHDEKRNIYQKIRDHDLLDKRKTVTALKAGEDRAILLGLAMMVCSIMMYFLLGITLLRSYMQSVWTEESQCTLLNASITETFNCSFSCGPDCWKLSQYPCLQVYVNLTSSGEKLLLYHTEETIKINQKCSYIPKCGKNFEESMSLVNVVMENFRKYQHFSSYSDPEGNQKSVILTKLYSSNVLFHSLFWPTCMMAGGVAIVAMVKLTQYLSLLCERIQRINR
0.41 | – | – | human BK channel β2 subunit C6S (C142S) (natural protein) MFIWTSGRTSSSYRHDEKRNIYQKIRDHDLLDKRKTVTALKAGEDRAILLGLAMMVCSIMMYFLLGITLLRSYMQSVWTEESQCTLLNASITETFNCSFSCGPDCWKLSQYPCLQVYVNLTSSGEKLLLYHTEETIKINQKSSYIPKCGKNFEESMSLVNVVMENFRKYQHFSCYSDPEGNQKSVILTKLYSSNVLFHSLFWPTCMMAGGVAIVAMVKLTQYLSLLCERIQRINR

The next lines start with the binder.

Binder | unbinding probability (q), from the non-inactivating offset of currents, inside-out patches of HEK293 cells, 10 μM Ca2+ [1] | experimental rectification ratio Rβ2* of mSlo1+β2(C1S), not corrected for unbinding [2] | experimental rectification ratio Rβ2* of mSlo1+β2(C2S), not corrected for unbinding [2]
human BK channel β2 subunit C1S (C84S) (natural protein) MFIWTSGRTSSSYRHDEKRNIYQKIRDHDLLDKRKTVTALKAGEDRAILLGLAMMVCSIMMYFLLGITLLRSYMQSVWTEESQSTLLNASITETFNCSFSCGPDCWKLSQYPCLQVYVNLTSSGEKLLLYHTEETIKINQKCSYIPKCGKNFEESMSLVNVVMENFRKYQHFSCYSDPEGNQKSVILTKLYSSNVLFHSLFWPTCMMAGGVAIVAMVKLTQYLSLLCERIQRINR | 0.48 | 1.22 | –
human BK channel β2 subunit C3S (C101S) (natural protein) MFIWTSGRTSSSYRHDEKRNIYQKIRDHDLLDKRKTVTALKAGEDRAILLGLAMMVCSIMMYFLLGITLLRSYMQSVWTEESQCTLLNASITETFNCSFSSGPDCWKLSQYPCLQVYVNLTSSGEKLLLYHTEETIKINQKCSYIPKCGKNFEESMSLVNVVMENFRKYQHFSCYSDPEGNQKSVILTKLYSSNVLFHSLFWPTCMMAGGVAIVAMVKLTQYLSLLCERIQRINR | 0.09 | – | –
human BK channel β2 subunit C4S (C105S) (natural protein) MFIWTSGRTSSSYRHDEKRNIYQKIRDHDLLDKRKTVTALKAGEDRAILLGLAMMVCSIMMYFLLGITLLRSYMQSVWTEESQCTLLNASITETFNCSFSCGPDSWKLSQYPCLQVYVNLTSSGEKLLLYHTEETIKINQKCSYIPKCGKNFEESMSLVNVVMENFRKYQHFSCYSDPEGNQKSVILTKLYSSNVLFHSLFWPTCMMAGGVAIVAMVKLTQYLSLLCERIQRINR | 0.08 | – | –
human BK channel β2 subunit C2S (C97S) (natural protein) MFIWTSGRTSSSYRHDEKRNIYQKIRDHDLLDKRKTVTALKAGEDRAILLGLAMMVCSIMMYFLLGITLLRSYMQSVWTEESQCTLLNASITETFNSSFSCGPDCWKLSQYPCLQVYVNLTSSGEKLLLYHTEETIKINQKCSYIPKCGKNFEESMSLVNVVMENFRKYQHFSCYSDPEGNQKSVILTKLYSSNVLFHSLFWPTCMMAGGVAIVAMVKLTQYLSLLCERIQRINR | 0.09 | – | 1.43
human BK channel β2 subunit C5S (C113S) (natural protein) MFIWTSGRTSSSYRHDEKRNIYQKIRDHDLLDKRKTVTALKAGEDRAILLGLAMMVCSIMMYFLLGITLLRSYMQSVWTEESQCTLLNASITETFNCSFSCGPDCWKLSQYPSLQVYVNLTSSGEKLLLYHTEETIKINQKCSYIPKCGKNFEESMSLVNVVMENFRKYQHFSCYSDPEGNQKSVILTKLYSSNVLFHSLFWPTCMMAGGVAIVAMVKLTQYLSLLCERIQRINR | 0.66 | – | –
human BK channel β2 subunit (KCNMB2), wild type (natural protein) MFIWTSGRTSSSYRHDEKRNIYQKIRDHDLLDKRKTVTALKAGEDRAILLGLAMMVCSIMMYFLLGITLLRSYMQSVWTEESQCTLLNASITETFNCSFSCGPDCWKLSQYPCLQVYVNLTSSGEKLLLYHTEETIKINQKCSYIPKCGKNFEESMSLVNVVMENFRKYQHFSCYSDPEGNQKSVILTKLYSSNVLFHSLFWPTCMMAGGVAIVAMVKLTQYLSLLCERIQRINR | 0.07 | – | –
